Data from US20160244497A1 (Amgen, published 2016).
Where a chain is given by its changes, count along the chain named. Names and notes keep the numbering of the source. Values joined by “and” are separate entries in the source; they are usually repeats but may differ in a detail not shown here. Equal entries are not always repeated.

B1: N-terminally PEGylated wild-type FGF21 (20 kDa PEG) (ligand)
chain: MHPIPDSSPLLQFGGQVRQRYLYTDDAQQTEAHLEIREDGTVGGAADQSPESLLQLKALKPGVIQILGVKTSRFLCQRPDGALYGSLHFDPEACSFRELLLEDGYNVYQSEAHGLPLHLPGNKSPHRDPAPRGPARFLPLPGLPPAPPEPPGILAPQPPDVGSSDPLSMVGPSQGRSPSYAS
modifications: one 20 kDa PEG on the N-terminus (alpha-amino group)
B2: wild-type FGF21 (mature, un-PEGylated) (ligand)
chain: B1 chain
B3: PEGylated FGF21 mutant R126C (ligand)
chain: B1 chain with R127C
modifications: 20 kDa methoxy-PEG-maleimide on Cys 126
B4: PEGylated FGF21 mutant Y179C (ligand)
chain: B1 chain with Y180C
modifications: 20 kDa methoxy-PEG-maleimide on Cys 179
B5: PEGylated FGF21 mutant D79C (ligand)
chain: B1 chain with D80C
modifications: 20 kDa methoxy-PEG-maleimide on Cys 79
B6: PEGylated FGF21 mutant D38C (ligand)
chain: B1 chain with D39C
modifications: 20 kDa methoxy-PEG-maleimide on Cys 38
B7: PEGylated FGF21 mutant N121C (ligand)
chain: B1 chain with N122C
modifications: 20 kDa methoxy-PEG-maleimide on Cys 121
B8: PEGylated FGF21 mutant G113C (ligand)
chain: B1 chain with G114C
modifications: 20 kDa methoxy-PEG-maleimide on Cys 113
B9: PEGylated FGF21 mutant K69C (ligand)
chain: B1 chain with K70C
modifications: 20 kDa methoxy-PEG-maleimide on Cys 69
B10: PEGylated FGF21 mutant R77C (ligand)
chain: B1 chain with R78C
modifications: 20 kDa methoxy-PEG-maleimide on Cys 77
B11: PEGylated FGF21 mutant D46C (ligand)
chain: B1 chain with D47C
modifications: 20 kDa methoxy-PEG-maleimide on Cys 46
B12: PEGylated FGF21 mutant R175C (ligand)
chain: B1 chain with R176C
modifications: 20 kDa methoxy-PEG-maleimide on Cys 175
B13: PEGylated FGF21 mutant E91C (ligand)
chain: B1 chain with E92C
modifications: 20 kDa methoxy-PEG-maleimide on Cys 91
B14: dually PEGylated FGF21 mutant E91C, H125C, P171G (ligand)
chain: B1 chain with E92C, H126C, P172G
modifications: 20 kDa methoxy-PEG-maleimide on Cys 91 and on Cys 125
B15: dually PEGylated FGF21 mutant E37C, E91C, P171G (ligand)
chain: B1 chain with E38C, E92C, P172G
modifications: 20 kDa methoxy-PEG-maleimide on Cys 37 and on Cys 91
B16: dually PEGylated FGF21 mutant E37C, R175C, P171G (ligand)
chain: B1 chain with E38C, P172G, R176C
modifications: 20 kDa methoxy-PEG-maleimide on Cys 37 and on Cys 175
B17: dually PEGylated FGF21 mutant R77C, G120C, P171G (ligand)
chain: B1 chain with R78C, G121C, P172G
modifications: 20 kDa methoxy-PEG-maleimide on Cys 77 and on Cys 120
B18: dually PEGylated FGF21 mutant E91C, G120C, P171G (ligand)
chain: B1 chain with E92C, G121C, P172G
modifications: 20 kDa methoxy-PEG-maleimide on Cys 91 and on Cys 120
B19: dually PEGylated FGF21 mutant E37C, H125C, P171G (ligand)
chain: B1 chain with E38C, H126C, P172G
modifications: 20 kDa methoxy-PEG-maleimide on Cys 37 and on Cys 125
B20: dually PEGylated FGF21 mutant E37C, G120C, P171G (ligand)
chain: B1 chain with E38C, G121C, P172G
modifications: 20 kDa methoxy-PEG-maleimide on Cys 37 and on Cys 120
B21: dually PEGylated FGF21 mutant E37C, R77C, P171G (ligand)
chain: B1 chain with E38C, R78C, P172G
modifications: 20 kDa methoxy-PEG-maleimide on Cys 37 and on Cys 77
B22: dually PEGylated FGF21 mutant E91C, R175C, P171G (ligand)
chain: B1 chain with E92C, P172G, R176C
modifications: 20 kDa methoxy-PEG-maleimide on Cys 91 and on Cys 175
B23: FGF21(K56R/K59R/K122R), 2 x 20k PEG (ligand)
chain: B1 chain with K57R, K60R, K123R
modifications: two 20k PEG (amine-specific): N-terminus and the one remaining lysine (Lys 69)
B24: FGF21(all K to all R, R36K), 2 x 20k PEG (ligand)
chain: B1 chain with R37K, K57R, K60R, K70R, K123R
modifications: two 20k PEG (amine-specific): N-terminus and Lys 36
B25: FGF21(all K to all R, R175K), 2 x 20k PEG (ligand)
chain: B1 chain with K57R, K60R, K70R, K123R, R176K
modifications: two 20k PEG (amine-specific): N-terminus and Lys 175
B26: FGF21(K56/59/69R), 2 x 20k PEG (ligand)
chain: B1 chain with K57R, K60R, K70R
modifications: two 20k PEG (amine-specific): N-terminus and the one remaining lysine (Lys 122)
B27: FGF21(all K to all R, R72K), 2 x 20k PEG (ligand)
chain: B1 chain with K57R, K60R, K70R, R73K, K123R
modifications: two 20k PEG (amine-specific): N-terminus and Lys 72
B28: FGF21(K59R/K69R/K122R), 2 x 20k PEG (ligand)
chain: B1 chain with K60R, K70R, K123R
modifications: two 20k PEG (amine-specific): N-terminus and the one remaining lysine (Lys 56)
B29: Native FGF21 (random), 2 x 20k PEG (ligand)
chain: B1 chain
modifications: two 20k PEG at random sites (sites not given)
B30: FGF21(K all R, R126K), 2 x 20k PEG (ligand)
chain: B1 chain with K57R, K60R, K70R, K123R, R127K
modifications: two 20k PEG (amine-specific): N-terminus and Lys 126
B31: FGF21(all K to all R, R77K), 2 x 20k PEG (ligand)
chain: B1 chain with K57R, K60R, K70R, R78K, K123R
modifications: two 20k PEG (amine-specific): N-terminus and Lys 77
B32: FGF21(K56R/K69R/K122R), 2 x 20k PEG (ligand)
chain: B1 chain with K57R, K70R, K123R
modifications: two 20k PEG (amine-specific): N-terminus and the one remaining lysine (Lys 59)
B33: Tethered Molecule of two FGF21 P171C polypeptides (20 kDa PEG linker) (ligand)
chain: B1 chain with P172C
modifications: Cys 171 of the two chains joined by one 20 kDa PEG bis-maleimide
B34: Tethered Molecule of two FGF21 R175C, P171G polypeptides (20 kDa PEG linker) (ligand)
chain: B1 chain with P172G, R176C
modifications: Cys 175 of the two chains joined by one 20 kDa PEG bis-maleimide
B35: Tethered Molecule of two FGF21 G120C, P171G polypeptides (20 kDa PEG linker) (ligand)
chain: B1 chain with G121C, P172G
modifications: Cys 120 of the two chains joined by one 20 kDa PEG bis-maleimide
B36: Tethered Molecule of two FGF21 E91C, P171G polypeptides (20 kDa PEG linker) (ligand)
chain: B1 chain with E92C, P172G
modifications: Cys 91 of the two chains joined by one 20 kDa PEG bis-maleimide
B37: Tethered Molecule of two FGF21 H125C, P171G polypeptides (20 kDa PEG linker) (ligand)
chain: B1 chain with H126C, P172G
modifications: Cys 125 of the two chains joined by one 20 kDa PEG bis-maleimide
B38: Tethered Molecule of two FGF21 R77C, P171G polypeptides (20 kDa PEG linker) (ligand)
chain: B1 chain with R78C, P172G
modifications: Cys 77 of the two chains joined by one 20 kDa PEG bis-maleimide
B39: Tethered Molecule of two FGF21 E37C, P171G polypeptides (20 kDa PEG linker) (ligand)
chain: B1 chain with E38C, P172G
modifications: Cys 37 of the two chains joined by one 20 kDa PEG bis-maleimide
B40: Tethered Molecule of two FGF21 G170C polypeptides (20 kDa PEG linker) (ligand)
chain: B1 chain with G171C
modifications: Cys 170 of the two chains joined by one 20 kDa PEG bis-maleimide
B41: FGF21 mutant H125C, P171G, PEGylated at the N-terminus (5k) and Cys 125 (20k) (ligand)
chain: B1 chain with H126C, P172G
modifications: 5 kDa PEG on the N-terminus; 20 kDa PEG on Cys 125
B42: FGF21 mutant R77C, P171G, PEGylated at the N-terminus and Cys 77 (2 x 20k) (ligand)
chain: B1 chain with R78C, P172G
modifications: 20 kDa PEG on the N-terminus; 20 kDa PEG on Cys 77
B43: FGF21 mutant H125C, P171G, PEGylated at the N-terminus and Cys 125 (2 x 20k) (ligand)
chain: B1 chain with H126C, P172G
modifications: 20 kDa PEG on the N-terminus; 20 kDa PEG on Cys 125
B44: FGF21 mutant H125C, P171G, PEGylated at the N-terminus (10k) and Cys 125 (20k) (ligand)
chain: B1 chain with H126C, P172G
modifications: 10 kDa PEG on the N-terminus; 20 kDa PEG on Cys 125

Molecular target: beta-klotho
Assay: cell-based or functional assay

Row | EC50, ELK-luciferase assay [µM] | Binder
1 | 0.037 | B1
2 | 0.003 | B2

Molecular target: beta-klotho
Assay: cell-based or functional assay
Remark: another data set of the same source

Row | EC50, ELK-luciferase assay [µM] | Binder
3 | 0.00063 | B2

Molecular target: beta-klotho
Assay: cell-based or functional assay
Remark: another data set of the same source

Row | EC50, ELK-luciferase assay | Binder
4 | 0.01 µM | B3
5 | 0.0367 µM and 0.0433 µM and 0.0215 µM and 0.04 µM | B1
6 | 0.287 µM | B4
7 | 0.0204 µM | B5
8 | 0.0131 µM | B6
9 | 0.0092 µM | B7
10 | 0.012 µM | B8
11 | 0.0053 µM | B9
12 | 0.0049 µM | B10
13 | 0.0278 µM | B11
14 | 0.0079 µM | B12
15 | 0.0083 µM | B13

Molecular target: beta-klotho
Assay: cell-based or functional assay
Remark: another data set of the same source

Row | EC50, ELK-luciferase assay [µM] | Binder
16 | 0.037 | B14
17 | 0.03 | B15
18 | 0.162 | B16
19 | 0.035 | B17
20 | 0.034 | B18
21 | 0.037 | B19
22 | 0.035 | B20
23 | 0.027 | B21
24 | 0.155 | B22

Molecular target: beta-klotho
Assay: cell-based or functional assay
Remark: another data set of the same source

Row | In Vitro Activity EC50, ELK-luciferase assay [µM] | Binder
25 | 0.531 | B23
26 | 0.073 | B24
27 | > 1 | B25
28 | 0.0433 | B1
29 | 0.5 | B26
30 | > 1 | B27
31 | 0.003 | B2
32 | 0.499 | B28
33 | 0.2 | B29
34 | 0.038 | B30
35 | 0.175 | B31
36 | 0.215 | B32

Molecular target: beta-klotho
Assay: cell-based or functional assay
Remark: another data set of the same source

Row | EC50, ELK-luciferase assay [µM] | Binder
37 | 0.00021 | B33
38 | 0.00036 | B34
39 | 0.00051 | B35
40 | 0.0002 | B36
41 | 0.00021 | B37
42 | 0.00025 | B38
43 | 0.00036 | B39
44 | 0.00047 | B40

Molecular target: beta-klotho
Assay: cell-based or functional assay
Remark: another data set of the same source

Row | EC50, ELK-luciferase assay [µM] | Binder
45 | 0.03 | B41
46 | 0.064 | B42
47 | 0.152 | B43
48 | 0.065 | B44
